B1: HDV Ribozyme (parent)
chain: GGCCGGCAUGGUCCCAGCCUCCUCGCUGGCGCCGGCUGGGCAACAUUCCGAGGGGACCGUCCCCUCGGUAAUGGCGAAUGGGACCCA

Variants of: B1
Experiment: self-cleavage, relative activity (ratio to wild type); higher = more cleavage; co-transcriptional

Point of comparison: GGCCGACAUGGUCCCAGCCUCCUCGCUGGCGCCGGCUGGGCAACAUUCCGAGGGGACCGGCCCCUCGGUAAUGGCGAAUGGGACCCA [G6A U60G], self-cleavage 0.365. Against it:
- GGCCGCCAUGGUCCCAGCCUCCUCGCUGGCGCCGGCUGGGCAUCAUUCCGAGGGGACCGUCCCCUCGGUAAUGGCGAAUGGGACCCA [G6C A43U] — lower, 0.0594
- GGCCGACAUGGUCCCAGCCUCCUCGCUGGCGCCGGCUGGGCAACAUUCCGAGGGGACCGUCCCCUCGGUAAAGGCGAAUGGGACCCA [G6A U72A] — lower, 0.0875
- GGCCGACAUGGUCCCAGCCUCCUCGCUGGCGCCGGCUGGGCAACAUUCCGAGGGGACCGUCCCCUCGGUAAGGGCGAAUGGGACCCA [G6A U72G] — lower, 0.246
- GGCCGACAUGGUCCCAGCCUCCUCGCUGGCGCCGGCUGGGCAACAUUCCGAGGGGACCGUCCCCUCGAUAAUGGCGAAUGGGACCCA [G6A G68A] — higher, 0.704
- GGCCGACAUGGUCCCAGCCUCCUCGCUGGCGCCGGCUAGGCAACAUUCCGAGGGGACCGUCCCCUCGGUAAUGGCGAAUGGGACCCA [G6A G38A] — lower, 0.0554
- GGCCGACAUGGUCCCAGCCUCCUCGCUGGCGCCGGCUCGGCAACAUUCCGAGGGGACCGUCCCCUCGGUAAUGGCGAAUGGGACCCA [G6A G38C] — lower, 0
- GGCCGACAUGGUCCCAGCCUCCUCGCUGGCGCCGGCUGGGCAACAAUCCGAGGGGACCGUCCCCUCGGUAAUGGCGAAUGGGACCCA [G6A U46A] — lower, 0.208
- GGCCGACAUGGUCCCAGCCUCCUCGCUGGCGCCGGCUGGGCAACAUUCCUAGGGGACCGUCCCCUCGGUAAUGGCGAAUGGGACCCA [G6A G50U] — higher, 0.708
- GGCCGCCAUGGUCCCAGCCUCCUCGCUGGCGCCGGCUGGGCGACAUUCCGAGGGGACCGUCCCCUCGGUAAUGGCGAAUGGGACCCA [G6C A42G] — lower, 0
- GGCCGCCAUGGUCCCAGCAUCCUCGCUGGCGCCGGCUGGGCAACAUUCCGAGGGGACCGUCCCCUCGGUAAUGGCGAAUGGGACCCA [G6C C19A] — lower, 0
- GGCCGCCAUGGUCCCAGCGUCCUCGCUGGCGCCGGCUGGGCAACAUUCCGAGGGGACCGUCCCCUCGGUAAUGGCGAAUGGGACCCA [G6C C19G] — lower, 0.192
- GGCCGACAUGGUCCCAGCCUCCUCGCUGGCGCCGGCUGGGCAACAUACCGAGGGGACCGUCCCCUCGGUAAUGGCGAAUGGGACCCA [G6A U47A] — lower, 0.35
- GGCCGCCAUGGUCUCAGCCUCCUCGCUGGCGCCGGCUGGGCAACAUUCCGAGGGGACCGUCCCCUCGGUAAUGGCGAAUGGGACCCA [G6C C14U] — higher, 0.453
- GGCCGCCAUGGUCACAGCCUCCUCGCUGGCGCCGGCUGGGCAACAUUCCGAGGGGACCGUCCCCUCGGUAAUGGCGAAUGGGACCCA [G6C C14A] — lower, 0
- GGCCGACAUGGUCCCAGCCUCCUCGCUGGCGCCGGCUGGGCAACAUUCCGAGGGGACCGUCCCCUCGGUAAUGGCGAACGGGACCCA [G6A U79C] — lower, 0.128
- GGCCGACAUGGUCCCAGCCUCCUCGCUGGCGCCGGCUGGGCAACAUUCCGAGGGGACCGUCCCCUCGGUAAUGGCGAAAGGGACCCA [G6A U79A] — lower, 0.322
- GGCCGACAUGGUCCCAGCCUCCUCGCUGGCGCCGGCUGGGCAACAUUCCGAGGGGACCGUCCCCUCCGUAAUGGCGAAUGGGACCCA [G6A G67C] — higher, 0.643
- GGCCGACAUGGUCCCAGCCUCCUCGCUGGCGCCGGCUGGGCAACAUUCCGAGGGGACCGACCCCUCGGUAAUGGCGAAUGGGACCCA [G6A U60A] — higher, 0.811
- GGCCGACAUGGUCCCAGCCUCCUCGCUGGCGCCGGCUGGGCAACAUUCCGAGGGGACCGCCCCCUCGGUAAUGGCGAAUGGGACCCA [G6A U60C] — higher, 0.789
- GGCCGCCAUGGUCCCAGCCUCCUCGCUGGAGCCGGCUGGGCAACAUUCCGAGGGGACCGUCCCCUCGGUAAUGGCGAAUGGGACCCA [G6C C30A] — lower, 0.0415
- GGCCGACAUGGUCCCAGCCUCCUCGCUGUCGCCGGCUGGGCAACAUUCCGAGGGGACCGUCCCCUCGGUAAUGGCGAAUGGGACCCA [G6A G29U] — lower, 0.0563
- GGCCGACAUGGUCCCAGCCUCCUCGCUGGCGCCGGCUGGGCAACAUUCCGAGGGGACCGUCCCCUCGGUAAUGGCGAAUGGGACACA [G6A C85A] — higher, 0.895
- GGCCGCCAUGGUCCCAGCCUCCUCGCUGGCGCCGGCUGGGCAACAUUCCGAGGGGACCGUCCCCUCGGUAAUGGCGAAUGGGACCCU [G6C A87U] — lower, 0.282
- GGCCGCCAUGGUCCCAGCCUCCUCGCUGGCGCCGGCUGGGCAACAUUCCGAGGGGACCGUCCCCUCGGUAAUGGCGAAUGGGACCCC [G6C A87C] — lower, 0.312
- GGCCGCCAUGGUCCCAGCCUCCUCGCUGGCGCCGGCUGGGCAACAUUCCGAGGGGACCGUCCCCUCGGUAAUGGCGGAUGGGACCCA [G6C A77G] — lower, 0.0791
- GGCCGACAUGGUCCCAGCCUCCUCGCUGGCGCCUGCUGGGCAACAUUCCGAGGGGACCGUCCCCUCGGUAAUGGCGAAUGGGACCCA [G6A G34U] — lower, 0
- GGCCGACAUGGUCCCAGCCUCCUCGCUGGCGCCGGCUGGGCAACAUUCCGAGGGGACCGUCCCCUCGGUAAUGGCGAAUGUGACCCA [G6A G81U] — lower, 0.0773
- GGCCGACAUGGUCCCAGCCUCCUCGCUGGCGCCGGCUGGGCAACAUUCCGAGGGGACCGUCCCCUCGGUAAUGGCGAAUGAGACCCA [G6A G81A] — lower, 0.282
- GGCCGACAUGGUCCCAGCCUCCUCGCUGGCGCCGGCUGGGCAACAUUCCGAGGGGACCGUCCCCUCGGUAAUGGCGAAUGCGACCCA [G6A G81C] — lower, 0.0378
- GGCCGACAUGGUCCCAGCCUCCUCGCUGGCGCCGGCUGGGCAACAUUCCGAGGGGACCGUCCCCUCGGUAAUGGCGAAUGGGACCGA [G6A C86G] — higher, 0.802
- GGCCGACAUGGUCCCAGCCUCCUCGCUGGCGCCGGCUGGGCAACAUUCCGAGGGGACCGUCCCCUCGGUAAUGGCGAAUGGGACCUA [G6A C86U] — higher, 0.759
- GGCCGACAUGGUCCCAGCCUCCUCGCUGGCGCCGGCUGGGCAACAUUCCGAGGGGACCGUCCCCUCGGUAAUGGCGAAUCGGACCCA [G6A G80C] — lower, 0.0941
- GGCCGACAUAGUCCCAGCCUCCUCGCUGGCGCCGGCUGGGCAACAUUCCGAGGGGACCGUCCCCUCGGUAAUGGCGAAUGGGACCCA [G6A G10A] — higher, 0.372
- GGCCGCCAUGGUCCCAGCCUACUCGCUGGCGCCGGCUGGGCAACAUUCCGAGGGGACCGUCCCCUCGGUAAUGGCGAAUGGGACCCA [G6C C21A] — lower, 0
- GGCCGACAUGGUCCCAGCCUCCUCGCUGGCGCCGGCUGGGCAACAUUCCGAGGGGACCAUCCCCUCGGUAAUGGCGAAUGGGACCCA [G6A G59A] — higher, 0.776
- GGCCGACAUGGUCCCAGCCUCCUCGCUGGCGCCGGCUGGGCAACAUUCCGAAGGGACCGUCCCCUCGGUAAUGGCGAAUGGGACCCA [G6A G52A] — higher, 0.831
- GGCCGACAUGGUCCCAGCCUCCUCGCUGGCGCCGGCUGGGCAACAUUCCGAGGGGACCGUCCCCUCGGUAAUGGCGAAUGGAACCCA [G6A G82A] — lower, 0.252
- GGCCGACAUGGUCCCAGCCUCCUCGCUGGCGCCGGCUGGGCAACAUUCCGAGGGGACCGUCCCCUCGGAAAUGGCGAAUGGGACCCA [G6A U69A] — higher, 0.525
- GGCCGACAUGGUCCCAGCCUCCUCGCUGGCGCCGGCUGGGCAACAUUCCGAGGGGACCGUCCCCUCGGUAAUGGCGAAUGGGAGCCA [G6A C84G] — lower, 0.122
- GGCCGACAUGGUCCCAGCCUCCUCGCUGGCGCCGGCUGGGCAACAUUCCGAGGGGACCGUCCCCUCGGUAAUGGCGAAUGGGAUCCA [G6A C84U] — higher, 0.628
- GGCCGCCAUGGUCCCAGCCUCCUCGCUGGCGCCGGCUGGGCAACAUUCCGAGGGGCCCGUCCCCUCGGUAAUGGCGAAUGGGACCCA [G6C A56C] — higher, 0.401
- GGCCGACAUGGUCCCAGCCUCCUCGCUGGCGCCGGCUGGGCAACAUUCCGAGGGGACCGUCCCCUCGGUAAUCGCGAAUGGGACCCA [G6A G73C] — lower, 0.312
- GGCCGACAUGGUCCCAGCCUCCUCGCUGGCGCCGGCUGGGCAACAUUCCGAGGGGACCGUCCCCUCGGUAAUUGCGAAUGGGACCCA [G6A G73U] — lower, 0.111
- GGCCGCCAUGGUCCCAGUCUCCUCGCUGGCGCCGGCUGGGCAACAUUCCGAGGGGACCGUCCCCUCGGUAAUGGCGAAUGGGACCCA [G6C C18U] — lower, 0.0923
- GGCCGCCAUGGUCCCAGACUCCUCGCUGGCGCCGGCUGGGCAACAUUCCGAGGGGACCGUCCCCUCGGUAAUGGCGAAUGGGACCCA [G6C C18A] — lower, 0.0791
- GGCCGACAUGGUCCCAGCCUCCUCGCUGGCGCCGGCCGGGCAACAUUCCGAGGGGACCGUCCCCUCGGUAAUGGCGAAUGGGACCCA [G6A U37C] — higher, 0.853
- GGCCGACAUGGUCCCAGCCGCCUCGCUGGCGCCGGCUGGGCAACAUUCCGAGGGGACCGUCCCCUCGGUAAUGGCGAAUGGGACCCA [G6A U20G] — lower, 0.262
- GGCCGACAUGGUCCCAGCCUCCACGCUGGCGCCGGCUGGGCAACAUUCCGAGGGGACCGUCCCCUCGGUAAUGGCGAAUGGGACCCA [G6A U23A] — higher, 0.569
- GGCCGCCAUGGUCCCAGCCUCCUCGCUGGCGCCGGCUGGGCAACAUUCCGAGGGGACCGUCCCCUCGGUAAUGGCGAAUGGGGCCCA [G6C A83G] — lower, 0.189
- GGCCGACAUGGUCCCAGCCUCCUCGCUGGCGCCGGCUGAGCAACAUUCCGAGGGGACCGUCCCCUCGGUAAUGGCGAAUGGGACCCA [G6A G39A] — lower, 0.277
- GGCCGACAUGGUCCCAGCCUCCUCGCUGGCGCCGACUGGGCAACAUUCCGAGGGGACCGUCCCCUCGGUAAUGGCGAAUGGGACCCA [G6A G35A] — lower, 0.302
- GGCCGACAUGGUCCCAGCCUCCUCGCUGGCGCCGGCUGGGCAACAUUCCGAGUGGACCGUCCCCUCGGUAAUGGCGAAUGGGACCCA [G6A G53U] — higher, 0.786
- GGCCGACAUGGUCCCAGCCUCCUCGCUGGCGCCGGCUGGGCAACAUUCCGAGAGGACCGUCCCCUCGGUAAUGGCGAAUGGGACCCA [G6A G53A] — higher, 0.874
- GGCCGCCAUGGUCCCAGCCUCCUCGCUGGCGACGGCUGGGCAACAUUCCGAGGGGACCGUCCCCUCGGUAAUGGCGAAUGGGACCCA [G6C C32A] — higher, 0.482
- GGCCGCCAUGGUCCCAGCCUCCUCGCUGGCGCCGGCUGGGCAACAUUCCGCGGGGACCGUCCCCUCGGUAAUGGCGAAUGGGACCCA [G6C A51C] — lower, 0.225
- GGCCGCCAUGGUCCCAGCCUCAUCGCUGGCGCCGGCUGGGCAACAUUCCGAGGGGACCGUCCCCUCGGUAAUGGCGAAUGGGACCCA [G6C C22A] — lower, 0
- GGCCGCCAUGGUCCCAGCCUCCUCGCUGGCGCCGGCUGGGCAACAUUCCGAGGGGACCGUCCCCUCGGUGAUGGCGAAUGGGACCCA [G6C A70G] — lower, 0.175
- GGCCGCCAUGGUCCCGGCCUCCUCGCUGGCGCCGGCUGGGCAACAUUCCGAGGGGACCGUCCCCUCGGUAAUGGCGAAUGGGACCCA [G6C A16G] — lower, 0.151
- GGCCGCCAUGGUCCCCGCCUCCUCGCUGGCGCCGGCUGGGCAACAUUCCGAGGGGACCGUCCCCUCGGUAAUGGCGAAUGGGACCCA [G6C A16C] — higher, 0.712
- GGCCGACAUGGUCCCAGCCUCCUCGCUGGCGCCGGCUGGGCAACAUUCCGAGGGGACCGUCCCCUCGGUAAUGGCAAAUGGGACCCA [G6A G76A] — higher, 0.744
- GGCCGCCAUGGUCCCAGCCUCCUCGCUGGCGCCGGCUGGGCAACAUUCCGAGGGGACCGUCCCCUCGGUAAUGGCGAAUGGGACCCA [G6C] — lower, 0.294
- GGCCGCCAUGGUCCCAGCCUCCUCGCUGGCGCCGGCUGGGCAACGUUCCGAGGGGACCGUCCCCUCGGUAAUGGCGAAUGGGACCCA [G6C A45G] — lower, 0.361
- GGCCGCCAUGGUCCCAGCCUCCUCGCUGGCGCCGGCUGGGCAACUUUCCGAGGGGACCGUCCCCUCGGUAAUGGCGAAUGGGACCCA [G6C A45U] — lower, 0.0615

Reference: the RNAGym collection of RNA variant scans (doi:10.7554/elife.80360)
